The chains are these.
B1: DbfS sensory domain, DbfS^SD-6×His (residues 43 to 171) (domain or fragment)
chain: NLIHQYLLEDVQNQLQLSMDEITANLEANPQGQLTLTTRLADPRFTQPYSGLYWSATLGDQTLRSRSLWDRFLTEETHVHGTIYLGAKEESLIVLKRTVYLPEFSQPITITIGLDDAPLKATLQRVSKE
notes: DbfS, sensor histidine kinase of the DbfRS two-component system of Vibrio cholerae (gene vc_1639); periplasmic sensory domain, residues 43 to 171; The vector is pET-15b; also called unlabeled DbfS; VC_1639; source: E. coli BL21 (DE3), pET-15b, purified (Ni-NTA)
B2: DbfQ, processed (residues 32 to 135, excluding the secretion signal), 6×His tag cleaved (natural protein)
chain: DNKVRDWEQGSYREGTQIEIDEDQDDVYRAVQKGLIRPFAELYATVDQQLNGRLIKVELDEDDDEWIYELKLVYDNQVFRVEYNAATLELMSIRGRNVIRAIKK
modifications: in the MST experiments only: covalently labeled with an amine-reactive Red-NHS dye
notes: DbfQ, small periplasmic PepSY-domain protein of Vibrio cholerae (135-amino-acid precursor, gene vc_1637); processed form, residues 32 to 135 without the secretion signal; also called cleaved DbfQ; DbfQ (6×His tag-cleaved)

Experiment [1] deals with B2. Kind of experiment: MST; titration to saturation for stoichiometry: DbfQ-NHS 100 nM, unlabeled DbfS 0 nM to 40,000 nM, 25 °C. As to conditions: both partners purified.
Experiment [2] concerns the target B1. Kind of experiment: MST; Red-NHS-labeled DbfQ constant at 20 nM, unlabeled DbfS 0.49 nM to 16,105 nM; buffer M (20 mM MES, 100 mM NaCl, 10% glycerol) with 0.05% Tween 20, pH 7.5, 25 °C; 1:1 binding model (PALMIST). Particulars: both partners purified.

As to B1, the “stoichiometry N” value in experiment [1] came out at 1.
Consider B2, for which the affinity in experiment [2], expressed as Kd, was 30 nM.

Source of the values: paper PMC12714742, “A small periplasmic protein governs broad physiological adaptations in Vibrio cholerae via regulation of the DbfRS two-component system” (Nature Communications, 2025).
